Measurements taken from the Immune Epitope Database (IEDB).

Tests used:
Assay in all cases: IEDB peptide-MHC binding, purified MHC/competitive/radioactivity; ≥ and ≤ were set here for values at or beyond the usual limits of such assays
Conditions in all cases: source organism: Bordetella pertussis
HLA-B*35:01 = target: HLA-B*35:01
HLA-B*07:02 = target: HLA-B*07:02
HLA-B*44:03 = target: HLA-B*44:03
HLA-B*53:01 = target: HLA-B*53:01
HLA-B*57:01 = target: HLA-B*57:01
HLA-A*02:01 = target: HLA-A*02:01

Sequence | IC50 (HLA-B*44:03) | IC50 (HLA-B*53:01) | also measured
EPASANTLL | – | – | IC50 (HLA-B*35:01): 69.9 µM; IC50 (HLA-B*07:02): 15 µM
FEPGITTNY | 42.8 µM | – | –
MPIDRKTLC | – | 1.63 µM | –
RELSAAANA | 21.1 µM | – | –
LKRPGSSPM | – | – | IC50 (HLA-B*07:02): 3.84 µM
KSLPGGKLP | – | – | IC50 (HLA-B*57:01): 5.78 µM
PKPKPKAER | – | ≥ 78.2 µM | –
AEVTDTSPS | 41.2 µM | – | –
AAQATVVQR | 23.3 µM | – | –
LATYQSEYL | – | ≥ 78.2 µM | –
ASPRRARRA | – | 69.9 µM | –
LAANGNGQW | – | 1.67 µM | –
YVLVKTNMV | – | – | IC50 (HLA-A*02:01): 3.96 µM
YEYIWGLYQ | 8.91 µM | – | –
ASVSNPGTF | – | – | IC50 (HLA-B*57:01): 40.8 µM
TAGATPFDI | – | 4.91 µM | –
NALAWALML | – | – | IC50 (HLA-B*35:01): 6.31 µM
GAASSYFEY | 44 µM | 47.3 µM | IC50 (HLA-B*35:01): 2.67 µM
